What was measured:
purified protein = substrate: O=C(O)/C=C/c1ccccc1; test: purified protein; conditions: 1 mM CoA, 1 mM ATP, 1 mM MgCl2, 50 mM Tris pH 7.5, 55°C, 0.5 μM enzyme, 50-7000 μM substrate
[1] = substrate: O=C(O)/C=C/c1ccc(O)cc1; test: coupled pyrophosphate assay (EnzChek); type: biochemical, Chitinophaga pinensis; conditions: 1 mM CoA, 1 mM ATP, 1 mM MgCl2, 50 mM Tris pH 7.5, 55°C, 0.5 μM enzyme, 10-750 μM substrate

B1: FlxY (Chitinophaga pinensis DSM 2588) (protein)
chain: MYIPDIELQSTAAIRKYQETEVLRLLGYLRQFSPFYREWFAQHGIQPSTVKSLNDLWLIPPVTKEHLQQQNWDFLCVDKSRIAEYTTTSGTLGNPVIIALTQKDQERLSYNEYISFCCAGGTENDIYQLMLTLDRQFMAGMAYYNGIRKLGAGVLRVGPGVPSLQWENISRIQPTTIVAVPSFIVKLIAFAKEHNIDINASSVKSAVCIGENIRNVDFSLNVLGKKITEQWDIKLYSTYASTEMQTAFTECNAGQGGHHHPELLYIELLDDNNQPVGPNQDGEVTITTLGVEGMPLLRYKTGDICRYFQEPCSCGRHTMRLSPVIGRRKQMIKYKGTTLYPPALFDLLNDMEEVKEFVVEVFSNEIGTDEILLHLWPVAETEDIDRKIRSYLQAKLRVIPQVRYCSQADVMKMQFPEGSRKPIKFIDRR
notes: His6-tagged full-length (pCOLADuet-1, BamHI/HindIII), expressed in E. coli BL21 (DE3), HisTrap purified, tag kept; expected size 49 kDa
- Km (purified protein): 868 µM
- Km [1]: 17 µM

— paper PMC3992019, “Initiation of the flexirubin biosynthesis in Chitinophaga pinensis” (Microbial Biotechnology, 2014)
